Experimental data from the DeepSol protein solubility set.

Assay: soluble on expression in E. coli; label from the status in PepcDB or PDB records

Sequence | soluble on expression in E. coli
MCLIVFAWRPGHAQPLIVAANRDEFYARPSLPLGQWPELPQIHAGRDLEAGGTWLGVGAEGRFAALTNIRNPHQPPARRSRGELVARFLAGDVPLDDYLRDVVGRSVEYAGFNLLLGNAEQLWHYNARDPQPQRLEPGVYGLSNAGLDTPWPKLLKARAALQEVLHDPQPQALLALLSDPQTAPFADLPDTGVGLATESLLSSVFIASPSYGTRASTALIVHADGSRHLLERSFGPYGGHLGEVELKVLEHHHHHH | not soluble
MCMPTKKYTEKFKISLVYLYRKGTSKQTLEDFGVSSASLSRWIKWYDVTDVDLNEAANILQMYELKKQKDKLEAEVLELTKAIQLFNSDLNTVLEHHHHHH | soluble
MCNTNMSVPTDGAVTTSQIPASEQETLVRPKPLLLKLLKSVGAQKDTYTMKEVLFYLGQYIMTKRLYDEKQQHIVYCSNDLLGDLFGVPSFSVKEHRKIYTMIYRNLVVVNQQESSDSS | soluble
MCRALQEQREASAAIAREILGDIKLNVTDGEFAVSIAQQEALESYVDLLEKQEQELIAELHRTVLRLSAKIAATRHLRNLAIREAGKQQGMRMAEDTTERGERQHEEA | not soluble
MCRYARSYLLHAFDYTLFVKARLNMAFMISMPAIELAGLTIQVCQFDPQQFDEDQQHYLAPPTYHSLHKAVVKRQAEFVAGRKLAQQALKQIGQGYDRPIAIGTHREPLWPAGITGSIAHCDGWAVCTVLKAEHLSLGIDIEHRLAHQTASEVQAIIGTAQEWALLAQQFDLASAVTLLFSAKESLFKALFPQVHLYLDFCDAQLSSLEPNKMSFTLTRVPNAAQQSCEVYFRWFEQQRVLTVSVLPMLGKIEYHVPTLPT | not soluble
MCSGYFELKQMFPIIRKIFVEKSNCSSNTHHSKRSIGETAGLKTGERIVGVNGQLIYPTNTHKEVVPLMKQNAMKTTLLEVH | not soluble
MCSHGHSHNCAAEHIPEVPGDDVYRYDMVSYIDMEKVTTLNESVDGAGKKVFKVMEKRDDRLEYVESDCDHELLFNIPFTGHVRLTGLSIIGDEDGSHPAKIRLFKDREAMSFDDCSIEADQEIDLKQDPQGLVDYPLKASKFGNIHNLSILVDANFGEDETKIYYIGLRGEFQHEFRQRIAIATYESRAQLKDHKNEIPDAVAKGLF | not soluble
MCSKNSENSNVPRAKSDFITPNCSENTKLFMIFQSRKSIICEVCGKKYSSKSALAKHKRTHETDKRCKIKLIFGSSQKKTQKLYFLQKLSFLDADFFSILERNLLIFGYFAIFFSQKNTYISRFTCPMCYASFDLSDPFKIHLRKHDNLKPFGCSYCFKQFSSRSVCRRHVQLMHENQKRAGDGDNDDDDDID | not soluble
MCYIEITKDNIEDNHICCALSTKQYEHAVNEKKRWLKARMDEGLVFYRLHERAKVFIEYLPANEAWVPINAPNFMYINCLWVSGRYKNNGHAKRLLDKCIADAKACGMDGIIHIAGKKKLPYLSDKHFFEHMGFTLQDEAAPYFQLMALTWNGLADSPAFKSQVKSDSINEKGITIYYTAQCPFAVGMINDLRELTEKKGVQFQSIQLSSKEEAQKSPAIWTTFSVFFDGRFVTHEIMSINKFEKLLNTLA | not soluble
MDAAKDLRMTQLLQDPHSVREEREKVLEVAIGREVRAFRKQQGITVAELSKLTDLSIGMLSKIENGNTSPSLTTLQTLANALSVPLTAFFKGYEEKREAIHTKAGQGLEIERAGTRAGHQYSLLGHIGSNSSGVIVEPYLITLSTESDTFKTFQHDGIEMIYMLEGKVDYLHGSEIYPLEPGDTLFFDADAPHGPERLVELPTRYLSVICYPQQKKG | not soluble
MDADASTITPEELDFIRQRALRRFDSIVPTAGREGTEIASDIFKGRTLAIYTSGGDSQGMNSAVRSITRMAIYCGCKVYLIYEGYEGMIEGGDFIKEATWNTVSDIIQQGGTIIGSARSSEFRTREGRLKAATNLINRGIGRLVCIGGDGSLTGANTFRLEWTDLVQELVKNQRVTAAAAKKIPYIQIVGLVGSIDNDFCGTDMTIGTDSALQRIISSIDAVVATAQSHQRAFVIEVMGRHCGYLALVAALASEADFCFIPEWPAPENWRDVLCDKLSQMRSEGQRLNIIIVAEGAIDRDGKAITAEDVKTAVKEKLKYDTRVTILGHVQRGGAPSAFDRLLGCRMGAEAVFALMEMTEESEPCVISIDGNVMVRVPLLKCVERTQMVQKAMADKDWTTAVMLRGRSFQRNLETYKLLTKMRTVEKDNLSEGHKFNVAVINVGAPAGGMNAAVRSYVRMALYHQCTVYGIEDSFEGLANGSFKQFKWSDVTNWAMNGGSFLGTQKSLPTEKTMPQLAAQLKKHNIQALLLVGGFEAYHSTIILAENREKYPEFCIPMCVIPCTISNNVPGTMVSLGSDTAINEICQMIDKIKQSATGTKRRVFIVETMGGYCGYLATLSALSSGADNAYIFEEPFTVQDLSDDVDVILSKMEVGAKRYLVVRNEWADKNLTTDFVQNLFDSEGKKNFTTRVNVLGHVQQGGSPTPFDRNMGTKLAARALEFLLIQLKENLTADNKVIAKSAHTATLLGLKGRKVVFTPVQDLKKETDFEHRLPSEQWWMALRPLLRVLARHRSTVESSAILESVEEESADSHMF | not soluble
MDAEEIRAIFRFSAMEKNMIYSFGIQGDLFLPFLLSLKSGGSWSYATEETKSIAVKDVITYYDEESKTGYTLEKIYFFIDPEVVAKEGVVRRLEKCGTKEERELVERPYIIALRAKRIIFAEVNPGSRKITVRELEKKCIQLKGTPAYSAAHELEHLKKGEVEGIPLWSFEYVKDQ | not soluble
MDAELFPRTRAETAPGAVHLPDWLSPGQQRELLDACREWARPPAGLRTVRTPGGGTMTARQVCLGRHWYPYGYAATAVDGDGAPVKPFPARLDGLARRAVTDALGAEAVAPAPYDIALINFYDADARMGMHRDADERTDAPVVSLSLGDTCVFRFGNPETRTRPYTDTELRSGDLFVFGGPSRLAYHGVPRVHPGTAPPELGLRGRLNITLRVSGFLEHHHHHH | not soluble
MDAKHIEKVFVKKVPAKSNKAQVKYPFDENSVNVLIIGLDKASNRSTYDLHRTDTILFLNINFKDKKVKGISIPRDTLTEIYKVGKWDKINSAFGYGGGEKEEGFFYTMETVSKLLGGMPIEYYVGFDLDAVRKVVNILGGVYVNVEVPVKVKTKWVNIDLKPGYQKLNGIETLYYALWRKTPGGDIDRIKRDKELILSVFEQLKESNKIITLPEIYWKIRRHFYTNLSLQQITSLAYFAQNMKKEDIVFESIPGDYFNYMGVSYWKPDYEGIKKLVKDLFGYDIEIDLKMPEKYKYARRIIVKAKKENNISYSHTNKSYSTESSQNQNSQSNSEVNLVQKQTETIENSTQSSSPFDAQWRNSSEDTQTLPPENDSQTTQGTQQQQATTESEIQVDTPSTSSDVVSNVYGGRLEHHHHHH | soluble
MDATMVFKRLLGSLGVGAPTVDTVLDPAPVLPGGTLTGQVHLEGGQTDFDIEHITLELVARVEAEHEDGEDEGVVVFDRFTVGGGFRLGAEEPRSVPFRVTLPWETPITELYGQPLGIVLGVRTELAVADAKDKGDLDQLTVTALPVQEAVLEAFGQLGFGFGSADLEYGHIGGTGQQLPFYQEIELVPAPQYADRLNEIELTFLAGPGGLEVVLEADKRGGLLSSGHDAVTRFSVGHHDARDWAAEVEGWVRQLVEHHTTYGAPGTHGHSTPYAGHGHHDPHGNGGRHHDDHRSGPGVGTAVAAGAAGLAVGVVGGMVAAEVVDEVGDFFEGDDEEEDEG | not soluble
MDAVNKFSVENWYPHLRKHTFKSHFITLNYNDIHYLMGNIPPDYDSSKLESIFNKILSEFNNKEVFMRLSTRSPKDSKFLFEEASTIMSKDFVYWNENDNKHQQLVSFVASMLKAMKIKSGRKIIETIAQSPRVYNDLLALVSSSNQSDCTTNVILREWHDIRPDHEFRVFVSRRHRKESIVTAISQYFHFLYFDKSPADCFNFLDEEDKKAVIKKFENYVLKSVDPDVAKFLNFSSEQDDDESSDCIREYIVDLALIPVSQYHGEITDENIIEIGANTYVMVVIELNPFAPAATGSGLFNWKNDLMMLWGKASCDYPVFKYRTTPREDLQSVSLLPSNYESVIKSALIKRLETLEHHHHHH | not soluble
MDCDIASYHVDSFDFLVSKGCQFAAQAVPAEKFRLKNGDAVTMKFTSAQLHKPTLDTGAKLTSDTLPLLPAECRQRGLTYAGNLKVGIDVHVNGSRLDIIEIILGKVPIMLRSEGCHLRGMSRKELVVAGEEPIEKGGYFIVNGSEKVIRLLIANRRNFPIAIIRKTFKEKGKLFSEFGVMMRSVKENHTAVMMTLHYLDTGTMQLALQFRREIFYVPLMYIVKALTDKNDAVISAGFKRGRNQDQFYSSCILNMLAQCQEEEILNQEAAIRAIGSRFRVAVSDRVAPWEDDLEAGRFIIRECVLIHLDSDEEKFHTLAYMTQKLIALVKGECAPETPDNPQFQEASVSGHILLLILRERMENIIGMVRRKLEYMSSRKDFILTSAAILKALGNHTGGEITRGMAYFLATGNLVTRVGLALQQESGFSVIAERINQLRFVSHFRAIHRGAFFMEMRTTDVRKLRPEAWGFICPVHTPDGAPCGLLNHVTASCRIVTDLSDNSNVPSLLAELGMYTHKTVALAPPGEELYPVLMNGRFLGYVPITKAASIERYLRCAKVAKDARIPYTSEIALVRRSTDIKNIQTQYPGIYILSDAGRLIRPVRNLAMDAVEHIGTFEQVYLSVVLDPEEAEPGVTMHQELHPSCLFSFAGNLIPFPDHNQSPRNVYQCQMGKQTMGTAVHAWHSRADNKMYRLQFPQQPMLKLEAYEKYEMDEYPLGTNACVAVISYTGYDMEDAMTINKASYQRGFAHGTVIKVERINLVTERERKTIFYRNPREEIKTVGPDGLPIPGRRYFLDEVYYVTFNMETGDFRTHKFHYAEPAYCGLVRIVEQGEGDSGAKHALIQWRIERNPIIGDKFASRHGQKGINSFLWPVESLPFSETGMVPDIIFNPHGFPSRMTIGMMIESMAGKAAATHGENYDASPFVFNEDNTAINHFGELLTKAGYNYYGNETFYSGVDGRQMEMQIFFGIVYYQRLRHMIADKFQVRATGPIDPITHQPVKGRKKGGGIRFGEMERDAIIAHGTSFVLQDRLLNCSDRDVAYACRRCGSLLSVLMSSRAGSHLLKKKRKDDEPLDYTETQRCRTCDKDDQVFLLQVPRVFRYLTAELAAMNVKIKLGIEHPSKVTGS | not soluble
MDDATKSSLKAIPLCKTKASPRDGDLWIERLKEEYEAIIAAVQNNKDCDRDWFQLESNERGTKWFGKCWYFHNMVKYEFDVEFDIPITYPVTAPEIALPELDGKTAKMYRGGKICLSEHFKPLWARNTPKFGIAHAFALGLGPWMAVEIPDLIEKGLIQPKA | not soluble
MDDPKQPTWNVSPSLRRHARELRKKSTEAERLMWGELRDKRLNGFSFKRQVPIGPYIADFACHAKKLVVELDGGQHFSDDGERSDAARTAAIEARGFRVIRFSNHEVMTNRAGVLQSIADVLAARVLTPTLSRKRERERAKRAAKPRSDAGAANDQGDE | not soluble
MDDSQESSFSVSKYETNDDGSMGQFISINECEREIQMLERDIRQQKESSANAKTAITFDQLRKIHTLSTLLGPHKELFFDRICRAADIQRASLKNRLKSNINKFEPSTPLSFQPGFDSQSSLSTTSESQNFVVTPTTLSSLLNNHTRKNHIEMLAPLASEEELMRFPAERQFDLMQIGFSYDEVKQLLEMFEKFKNDVQEINRLHTLTQILNQFCNYISMYAPPNLKMISSAFNLLELGNSAHEVKRVLLKARRREESEESDVSFSKKPRPSSRSPASPNRDDLLLGLDRSPPSDDGTQKV | not soluble
MDEDVLPGEVLAIEGIFMACGLNEPEYLYHPLLSPIKLYITGLMRDKESLFEAMLANVRFHSTTGIDQLGLSMLQVSGDGNMNWGRALAILTFGSFVAQKLSNEPHLRDFALAVLPAYAYEAIGPQWFRARGGWRGLKAYCTQVLTDDDDLEHHHHHH | soluble
